Primed or numbered codes have the meaning given here. No end group written: not given here. *: point of attachment. FITC = O=C1OC2(c3ccc(O)cc3Oc3cc(O)ccc32)c2ccc(NC(=S)*)cc21; PEG3′ = not defined here
Test: Circular dichroism of Max basic region peptides
Type: physicochemical
Settings: circular dichroism wavelength scans; 100 uM peptide in water
Description: Each of the synthesized peptides were purified by HPLC and biochemically characterized. Each peptide was diluted in water to a final concentration of 100 uM using the extinction coefficient of FITC at 495 nm in 50 mM NaH2PO4, pH 8.0. […] One peptide, i, i+4 version 1, was chosen to be synthesized so as to contain a C-terminal thioester. The peptide was synthesized using t-Boc chemistry on 3-S-trityl-mercaptopropionyl resin. The peptide was purified by HPLC and the desired product was confirmed by LC/MS analysis.

unmodified basic region peptide: unmodified DNA binding basic region of Max (RAHHNALERKRR, SEQ ID NO: 2) with N-terminal PEG-3 linker and FITC ({FITC-PEG3′}-RAHHNALERKRR)
CD profile (secondary structure in solution): disordered in solution
